Legend:
[1] = molecular target: T1, IRAK4 (Homo sapiens, UniProt Q9NWZ3); assay: mRNA display affinity selection against IRAK4, NGS abundance; assay type: binding; parameters: acids 1-460; NP_057207.2) was purchased from Carna Biosciences; purchased Carna Biosciences (Kobe, Japan); conditions: Top100 selection hits, NGS
T1 sequence (Q9NWZ3 1-460): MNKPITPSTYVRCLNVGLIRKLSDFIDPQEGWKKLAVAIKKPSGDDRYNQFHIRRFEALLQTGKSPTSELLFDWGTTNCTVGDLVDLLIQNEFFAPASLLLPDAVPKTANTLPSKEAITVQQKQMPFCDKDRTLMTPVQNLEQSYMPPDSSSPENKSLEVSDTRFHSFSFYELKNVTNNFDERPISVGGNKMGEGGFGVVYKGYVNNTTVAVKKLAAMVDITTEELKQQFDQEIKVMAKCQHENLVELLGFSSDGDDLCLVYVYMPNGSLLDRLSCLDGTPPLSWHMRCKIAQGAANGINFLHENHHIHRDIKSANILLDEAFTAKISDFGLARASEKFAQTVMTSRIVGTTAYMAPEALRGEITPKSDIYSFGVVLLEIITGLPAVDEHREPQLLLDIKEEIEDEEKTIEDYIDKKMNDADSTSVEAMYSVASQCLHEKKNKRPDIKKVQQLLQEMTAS

[2] = molecular target: T2, TLR10 (Homo sapiens, UniProt Q9BXR5); assay: mRNA display affinity selection against TLR10, NGS abundance; assay type: binding; parameters: Chimera protein (extracellular domain, amino acid 20-576;); Fc (chimera); purchased R&D system #6619-TR-050; conditions: Top100 selection hits, NGS
T2 sequence (Q9BXR5 20-576): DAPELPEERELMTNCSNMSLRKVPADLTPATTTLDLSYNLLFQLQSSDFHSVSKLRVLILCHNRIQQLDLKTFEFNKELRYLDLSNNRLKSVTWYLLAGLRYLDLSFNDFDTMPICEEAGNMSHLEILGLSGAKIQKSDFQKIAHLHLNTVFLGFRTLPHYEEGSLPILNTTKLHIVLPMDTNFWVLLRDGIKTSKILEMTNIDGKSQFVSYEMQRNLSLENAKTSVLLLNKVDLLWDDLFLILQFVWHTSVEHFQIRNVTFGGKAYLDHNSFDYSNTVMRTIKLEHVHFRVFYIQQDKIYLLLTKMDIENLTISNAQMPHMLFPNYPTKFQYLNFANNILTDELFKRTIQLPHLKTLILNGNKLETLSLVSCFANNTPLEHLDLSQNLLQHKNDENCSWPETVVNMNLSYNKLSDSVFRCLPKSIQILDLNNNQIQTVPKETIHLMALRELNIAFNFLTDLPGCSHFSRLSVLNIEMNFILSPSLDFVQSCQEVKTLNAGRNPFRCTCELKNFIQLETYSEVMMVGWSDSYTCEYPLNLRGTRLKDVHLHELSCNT

Row | Sequence | Library fraction ([1]; IRAK4 selection pulldown (+)) | Raw reads ([1]; IRAK4 selection pulldown (+)) | Library fraction ([1]; IRAK4 selection pulldown (-)) | Raw reads ([1]; IRAK4 selection pulldown (-)) | Library fraction ([2]; TLR10 selection pulldown (+)) | Raw reads ([2]; TLR10 selection pulldown (+)) | Library fraction ([2]; TLR10 selection pulldown (-)) | Raw reads ([2]; TLR10 selection pulldown (-))
1 | AIRWKNRNYK | 0.0009 | 95 | 0.00032 | 43 | – | – | – | –
2 | ALLWRRRNYH | 0.0006 | 61 | 0.00021 | 28 | – | – | – | –
3 | AMLWKRRLWR | 0.0005 | 57 | 0.00051 | 68 | – | – | – | –
4 | AMRWRNRCYK | 0.0001 | 14 | – | – | – | – | – | –
5 | AMSLYWARRRPH | 0.0028 | 304 | 0.00857 | 1144 | – | – | – | –
6 | AQRWRQKCYK | 0.0002 | 19 | – | – | – | – | – | –
7 | AQRWRRRCYH | 0.0008 | 85 | 0.00051 | 68 | – | – | – | –
8 | AQYWKRRLWR | 0.0001 | 9 | – | – | – | – | – | –
9 | ARLWRRRIYQ | 0.0001 | 11 | 0.00049 | 66 | – | – | – | –
10 | CQCWNRRNWT | 0.0003 | 35 | 0.00037 | 49 | – | – | – | –
11 | CQRIGRRNYS | – | – | 0.0001 | 14 | – | – | – | –
12 | CQRWKRRCYM | 0.0007 | 76 | 0.00053 | 71 | – | – | – | –
13 | GMKRQFITWHWT | – | – | 7e-5 | 10 | – | – | – | –
14 | GPILYNRRLFV | 0.0002 | 21 | 0.00014 | 19 | – | – | – | –
15 | GPLLWNTRIYC | 0.0001 | 14 | – | – | – | – | – | –
16 | GPVIYNRRIYC | 0.0001 | 11 | 0.00021 | 28 | – | – | – | –
17 | MMLWKRRMYK | 0.0001 | 15 | – | – | – | – | – | –
18 | RILWRRRRYH | 0.0009 | 95 | 0.00044 | 59 | – | – | – | –
19 | RLCWKRRNWT | 0.0004 | 47 | 0.00044 | 59 | – | – | – | –
20 | RLCYKRRNWQ | – | – | 0.00013 | 17 | – | – | – | –
21 | RLFWKRRRYA | 0.0004 | 42 | 0.00016 | 21 | – | – | – | –
22 | RLLWKHRLYA | – | – | 8e-5 | 11 | – | – | – | –
23 | RLLWKRRNYQ | 0.0002 | 25 | 0.00025 | 33 | – | – | – | –
24 | RLLWRRRNYA | 0.0009 | 98 | 0.00106 | 142 | – | – | – | –
25 | RMLWKRRMWH | 0.0011 | 118 | 0.00041 | 55 | – | – | – | –

Row | Sequence | Library fraction ([1]; IRAK4 selection pulldown (+)) | Raw reads ([1]; IRAK4 selection pulldown (+)) | Library fraction ([1]; IRAK4 selection pulldown (-)) | Raw reads ([1]; IRAK4 selection pulldown (-)) | Library fraction ([2]; TLR10 selection pulldown (+)) | Raw reads ([2]; TLR10 selection pulldown (+)) | Library fraction ([2]; TLR10 selection pulldown (-)) | Raw reads ([2]; TLR10 selection pulldown (-))
26 | RQRWRGRKYH | 0.0001 | 8 | 0.00011 | 15 | – | – | – | –
27 | RQRWRSRDYA | – | – | 8e-5 | 11 | – | – | – | –
28 | RTFWRRRRYH | 0.0004 | 44 | 0.00039 | 52 | – | – | – | –
29 | RTRWKCKMYH | 0.0002 | 20 | – | – | – | – | – | –
30 | RTYWKRRCYA | 0.0076 | 814 | 0.00332 | 444 | – | – | – | –
31 | RVLWKKRNYA | 0.0004 | 46 | 0.00019 | 26 | – | – | – | –
32 | SARWRRRNYS | – | – | 0.00011 | 15 | – | – | – | –
33 | SIFWRRRIYK | 0.002 | 228 | 0.00048 | 64 | – | – | – | –
34 | SILWKKHIYK | 0.0035 | 369 | 0.00093 | 124 | – | – | – | –
35 | SILWKKRVWK | 0.016 | 1700 | 0.009 | 1218 | – | – | – | –
36 | TMFFRRQNAMAL | – | – | – | – | 0.00074 | 72 | – | –
37 | TMHFSNQRKLVF | – | – | – | – | 0.00022 | 21 | – | –
38 | TMLFRLQSKLAI | – | – | – | – | – | – | 0.013 | 1571
39 | TMMFPHQRKLAF | – | – | – | – | – | – | 0.009 | 1056
40 | TMMFPRLGKVAY | – | – | – | – | 0.00528 | 515 | 0.003 | 351
41 | TMQFPLQRRMAI | – | – | – | – | 0.00468 | 456 | 0.002 | 241
42 | TNPYGGNITM | – | – | – | – | 0.015 | 1427 | 0.00949 | 1132
43 | TNPYGGNVGW | – | – | – | – | 0.143 | 13980 | 0.238 | 28345
44 | TYWKACAMSHIP | – | – | – | – | 0.00237 | 231 | 0.00056 | 67
45 | VGQVLVKSS | – | – | – | – | 0.00061 | 59 | 0.00086 | 102
46 | VGRVYIKSS | – | – | – | – | 0.00258 | 251 | 0.00364 | 434
47 | VGYVLVKSS | – | – | – | – | 0.00033 | 32 | – | –
48 | VQLHRWGLRM | – | – | – | – | 0.00032 | 31 | – | –
49 | WCGATLYSSIS | – | – | – | – | 0.00024 | 23 | – | –
50 | WPGSMARDSIS | – | – | – | – | 0.013 | 1282 | 0.018 | 2179
